Data from patent US20230044037A1 (INTERVET, published 2023).

Biological target: T1, canine IL-4 receptor alpha (IL-4Rα) on DH82 cells (canine)
T1 construct: Endogenous receptor of the DH82 cells in the STAT-6 assay; also called canine IL-4Rα; IL-4R alpha
T1 chain: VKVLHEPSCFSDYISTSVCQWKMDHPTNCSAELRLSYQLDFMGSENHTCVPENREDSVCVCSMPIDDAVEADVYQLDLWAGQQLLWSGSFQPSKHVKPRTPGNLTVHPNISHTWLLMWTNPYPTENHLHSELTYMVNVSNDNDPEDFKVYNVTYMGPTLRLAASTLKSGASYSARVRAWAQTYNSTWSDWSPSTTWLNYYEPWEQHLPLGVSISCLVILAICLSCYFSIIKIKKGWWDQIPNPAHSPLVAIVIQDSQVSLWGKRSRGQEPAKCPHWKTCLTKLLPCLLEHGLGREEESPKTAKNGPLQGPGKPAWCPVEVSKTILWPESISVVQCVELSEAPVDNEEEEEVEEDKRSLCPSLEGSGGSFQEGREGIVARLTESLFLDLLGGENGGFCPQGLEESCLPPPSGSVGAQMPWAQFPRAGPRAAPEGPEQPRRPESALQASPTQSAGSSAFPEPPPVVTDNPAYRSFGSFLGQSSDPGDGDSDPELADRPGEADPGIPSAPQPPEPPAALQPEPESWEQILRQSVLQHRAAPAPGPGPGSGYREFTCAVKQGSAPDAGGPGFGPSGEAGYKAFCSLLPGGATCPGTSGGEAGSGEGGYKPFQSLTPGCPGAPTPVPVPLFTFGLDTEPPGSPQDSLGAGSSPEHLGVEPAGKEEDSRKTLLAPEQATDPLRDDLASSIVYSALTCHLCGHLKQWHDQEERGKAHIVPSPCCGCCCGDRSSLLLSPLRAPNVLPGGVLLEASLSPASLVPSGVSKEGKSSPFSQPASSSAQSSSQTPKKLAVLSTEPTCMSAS
Assay: told from inhibition of IL-4- and IL-13-mediated STAT-6 phosphorylation in DH82 cells (AlphaLISA)

B1: c152H11-H3L3 (c152H11VL3-cCLk-s/c152H11VH3-cIgG-Bm) (antibody, V domains shown)
VH: EVQLVESGGDLVKPGGSLRLSCAASGFTFSSYGMSWVRQAPDKRLQWVATISRGGDYTYYPDSVKGRFTISRDNAKNTLYLQMNSLRAEDTAMYYCARGTLNNRGFASWGQGTLVTVSS
VL: EIVMTQSPASLSLSQEEKVTITCKASQNVGTNVAWYQQKPGQAPKLLIYSASYRYSGLPDRFSGSGSGTDFSFTISSLEPEDVAEFFCQQYNSYPYTFGQGTKLEIKR
notes: Caninized anti-canine IL-4R alpha antibody: VH3 heavy chain on modified canine IgG-B (IgG-Bm), kappa light chain L3
binding result: binds
